Experiment: soluble on expression in E. coli; label from the status in PepcDB or PDB records
In the case of “MTKSETTLSKLLVESELVQECEELLSSLPRDRSVFAEYLYQYQGFWYPPNLLEGVLYSQKHFQARDSDIVLASIPKSGTTWLKSLVFALIHRQEFQTPLVSHPLLDNNPHTLVTFIEGFHLHTQDTSPRIFSTHIPVGSLPESVKDSSCKVVYCCRNPKDAFVSLWHFMKNLIVKEMVGCTMEEMVRFFCRGSSIYGPFWDHVLQYWKESRENPKKVMFVMYEEMREQPQEWVMRIAEFLGYSFTEEEIENGVLEDIIKLCSLENLSKLEVNEKGKLLNGMETKAFFRKGEIGGWRDTLTPLLAEEIDKTTKEKLIGSDFRFFC”, the “soluble on expression in E. coli” value is reported as “soluble”. In the case of “MTKTEPNNAQLDWLESESIHIIREVAAECENPALLFSGGKDSVVLLALACKAFRLGSRPVKLPFPLVHIDTGHNYPEVIAFRDAQAAKLNARLIVGRVEDSIAKGTVVLRKETDSRNAAQAVTLLETIEANGFDALMGGARRDEEKARAKERIFSFRDEFGQWDPKAQRPELWSLYNTRLHKGENMRVFPISNWTELDIWQYIARENLELPPIYYSHRREVVRRRGLLVPVTPLTPKMPSETSEILDVRFRTVGDISCTCPVESTASTPTEIIRETAVADISERSATRLDDQASEAAMEKRKKEGYF”, the “soluble on expression in E. coli” value is reported as “not soluble”. In the case of “MTKTQLVCDKNQLNWGLKAAKAIAGKSPYDVVQMRVSPDRDYLYICAVNAEATLVAKVELLVANISSEEDEIITIDKAKIPALILATAETGKKSEDSRPMAGICIRGKEVDFTDENGAGRGVDLTTIHRNDSAEIGDPVRTIIRVKQ”, the “soluble on expression in E. coli” value is reported as “not soluble”. In the case of “MTKVTHLPADDRSCGWYHLSPPRRPKPAHYGRSAARWVVVGAGFTGLAAARQLALHFPDEEIVLVEAQEVGFGTAGRNAGFAIDLPHDIGADDYIGDIATARIGLKLNLAGQSLLREQVQRHAIDCQMKACGKYQAAVEARGVAVLDAYRRGLDRLGQAYEVIEADDLPGNIGTAFYRKALFTPGTLLVQPSALVKGLADSLPGNVSLYEHTPITAVEYGDRTLLSHPHGSILADRLVLANNAFGMSFGFLQGRMLPIFTYASLTRPLDAEEQARLGGRPYWGLIPANPYGTTVRRTPDNRLLIRNSFSFNPDGRSAGKYLERFAVRHRASFRQRFPMLPEVGFDYTWGGSLALSRNHMGHFGELAPNVYGALCCNGLGVTRGTVTGKLLADWLAGERNELIDFLLRAPGPSGNPPEPLLSLGVNLNLRWGQYRAGRESLEHHHHHH”, the “soluble on expression in E. coli” value is reported as “not soluble”. With “MTKVTREEVEHIANLARLQISPEETEEMANTLESILDFAKQNDSADTEGVEPTYHVLDLQNVLREDKAIKGIPQELALKNAKETEDGQFKVPTIMNEEDA” the “soluble on expression in E. coli” value was “soluble”. In the case of “MTLDELNRLLDPQVLALIDAHASDDPATFAMQFHGRGDLPVRAIAEQIACRKKAAAKLPSLSRFPMLYTRL”, the “soluble on expression in E. coli” value is reported as “not soluble”. With “MTLEKFVDALPIPDTLKPVQQSKEKTYYEVTMEECTHQLHRDLPPTRLWGYNGLFPGPTIEVKRNENVYVKWMNNLPSTHFLPIDHTIHHSDSQHEEPEVKTVVHLHGGVTPDDSDGYPEAWFSKDFEQTGPYFKREVYHYPNQQRGAILWYHDHAMALTRLNVYAGLVGAYIIHDPKEKRLKLPSDEYDVPLLITDRTINEDGSLFYPSAPENPSPSLPNPSIVPAFCGETILVNGKVWPYLEVEPRKYRFRVINASNTRTYNLSLDNGGDFIQIGSDGGLLPRSVKLNSFSLAPAERYDIIIDFTAYEGESIILANSAGCGGDVNPETDANIMQFRVTKPLAQKDESRKPKYLASYPSVQHERIQNIRTLKLAGTQDEYGRPVLLLNNKRWHDPVTETPKVGTTEIWSIINPTRGTHPIHLHLVSFRVLDRRPFDIARYQESGELSYTGPAVPPPPSEKGWKDTIQAHAGEVLRIAATFGPYSGRYVWHCHILEHEDYDMMRPMDITDPHK” the “soluble on expression in E. coli” value was “soluble”. For “MTLHKPTQAVPCRAPKVGRLIYTAGGYFRQSLSYLEAYNPSNGSWLRLADLQVPRSGLAGCVVGGLLYAVGGRNNSPDGNTDSSALDCYNPMTNQWSPCASMSVPRNRIGVGVIDGHIYAVGGSHGCIHHSSVERYEPERDEWHLVAPMLTRRIGVGVAVLNRLLYAVGGFDGTNRLNSAECYYPERNEWRMITPMNTIRSGAGVCVLHNCIYAAGGYDGQDQLNSVERYDVETETWTFVAPMRHHRSALGITVHQGKIYVLGGYDGHTFLDSVECYDPDSDTWSEVTRMTSGRSGVGVAVTMEPCRKQIDQQNCTCY”, the “soluble on expression in E. coli” value was “soluble”. For “MTLTDISLAQAFISIPQDVIALDLSNNLLGSKSCVDLLVNIADCIPAGVTSLDLSSNGLRLTQVSLVTPKHVTSLNLCFNPLHEISIDGLEWLKDSLAHIQIIYLSYDMVNNMSREQRQAFRAVIPNIQTIILVDKNGKEIGPSHTAKIANLISELGGGNPEVPSLEHHHHHH”, the “soluble on expression in E. coli” value was “not soluble”. With “MTLVIGLTGGIASGKSTVANMLIEKGITVIDADIIAKQAVEKGMPAYRQIIDEFGEDILLSNGDIDRKKLGALVFTNEQKRLALNAIVHPAVRQEMLNRRDEAVANREAFVVLDIPLLFESKLESLVDKIIVVSVTKELQLERLMKRNQLTEEEAVSRIRSQMPLEEKTARADQVIDNSGTLEETKRQLDEIMNSWALEHHHHHH” the “soluble on expression in E. coli” value was “soluble”. For “MTMNIAVVSGRIAPELTLPGLNFSRAYAPSTDFRSARLGLLTGQYPQRQPVTRFASLIGTVAEDFSPADVHIIERAEITPDLLDQAHDSGAATFFVGHPTIDDHRVRMSLLWPGVTDTNLPHDTIDGVVTCNELVSTLDIAPTLAAIAGYDVRPNAQLSFDGMNLTPVIRYGATGHGGLFFDDGTVITPTEVRRQANDPEWTMWHQFMNMGPLQ”, the “soluble on expression in E. coli” value was “not soluble”. For “MTMTLVNKNRKSRDENAMAKYNEKELADTSKFLSFVLRHKPEAIGIVLDREGWADINKLILCAQKAGKRLTRALLDTVVATSDKKRFSYSSDGRCIRAVQGHSTSQVAISFAEKTPPQFLYHGTASRFLDEIKKQGLIAGDRHYVHLSADEATARKVGARHGSPVVLTVKAQEMAKRGIPFWQAENGVWLTSTVAVEFLEWSFMPTGVQKQLEHHHHHH”, the “soluble on expression in E. coli” value was “soluble”. With “MTMTTMPESLNSPVSGKAVFMEFGPPNQQMSPSPMSHGHYSMHCLHSAGHSQPDGAYSSASSFSRPLGYPYVNSVSSHASSPYISSVQSYPGSASLAQSRLEDPGQDLVPKQAIQVQEADEAGWGGSGG” the “soluble on expression in E. coli” value was “soluble”. In the case of “MTNEEPKSPEKVERRRSTQEDSEKDKKRSRDDRKTEKRTHDRDRKRNRSRSRSRSRSPKRSRRDKKEEKQEQEEEDGEIRDTTPPAPEKPRQLTARELERQRIIEEELKSGKHDEHDDDPVWSMKKAQAEKKSRMCPYLDTIDRSVLDFDFEKQCSVSLSHQNVYACMVCGKYFQGRGTNTHAYTHALETDHHVFLNLQTLKFYCLPDNYEVIDPSLEDIKYVLKPTYTKEMIASIDKQSKMVRAYDDSTYFPGVVGLNNIKANDYCNAILQALSAVRPLRNWFLKESNYTSIKRPPGDKLTLLPQRFGELIRKLWNPRALRTHVSPHEMLQAVVVCSNKKFQFIKQNDAADFMLFLLTTLHSALNGTDKKPSIISKTFRGRMRQYSRRVIPAEDTDEEKYMKLRMPEYQEKVIESPFLYLTLDLPSAPLYRDVQLQNIIPQVPLSTLLEKFDGKTEKEYPTYNDNNIMKRFELLQLPDFLIITYKRFQKNQWFVEKNPTIVNFPIANVDFYDCLAKDARANHKYTTYDLVANVVHEGTFKDGNYRIQIVHEGSGKWFELEDLHVKDLLPQMIVLAESYIQIWRLNKEQTRDERAEGEPMQN”, the “soluble on expression in E. coli” value is reported as “not soluble”. With “MTNKEKPIKHLVIDTCAIIANRNLHALADHYYAPPQILDELRSSAARKLWNTLPFEVTLREPTQTALRAVIDASKTTGDFQSLSMVDIKMIALTYDLHRQYVAENDVAETTEDDEKKNIEDLSAKVEQVTVGENTEDTKEEEIEENEESEDSAVSEGSESSESSESFDEDGWITQDNIEETLKKLGAFEIEENMLVGCLTTDFALQNVLLAMNLSLVSLSGYRIRKLKSFVLRCRTCFSTTSVMTKEFCPACGHKTLHKCAVSVDEDGNQQLHINWNRMANRRGLVYTLANPKGGKHATNERLFEDQPMPHMRMAKIHMDPLADGPFSVHDVTSRSAMLGVRTINNRAKQNRNPNESKRGGRRK” the “soluble on expression in E. coli” value was “not soluble”. For “MTNLETYFKNSQPLNEYIDGMKTNQDTVLSIYQSFELPEDDSRIKKIKEMNYSKVLVITEDWCGDAMMNLPILKHISEALNLEVRVFHRDDDTKLIDQYLTNGKSRAIPIFVFLNDQFEQETVWGPRANEVQKFVTDVRADKLPSKDHPDYADLEKETHLVISNRYKTDASFWKAVYNSILNKLENK”, the “soluble on expression in E. coli” value was “not soluble”. In the case of “MTNPTKPIPLNFDKPRRFMPPKHFADLSADERIDALKELGLPKFRANQIARHYYGRLEADPSTMTDLPAAAREKVKDALFPQLMQPVRAVQADDGETQKTLWKLHDGTLLESVLMRYPNRATLCISSQAGCGMACPFCATGQGGLDRNLSTGEIVDQVRAASATMQAEGGRLSNIVFMGMGEPLANYKRVVSAVRQITAPVPEGFGISQRNVTVSTVGLAPAIRKLADEDLSVTLAVSLHTPDDELRNTLVPTNNRWEVAEVLDAARYYADRSGRRVSIEYALIRDVNDQGWRADMLGKKLHKALGPLVHVNLIPLNPTPGSKWDASPMDRQKEFVQRVIAQGVTCTVRDTRGQEIAAACGQLAAEER”, the “soluble on expression in E. coli” value is reported as “not soluble”. In the case of “MTNQQDYTQDNDKLYRYLFQHRAVRGEWVRLNKTFTDTLNTHQYPKAVQDLLGEMMVATNLLTATLKFAGNITVQIQGDGPLRLALVNGNDQQQIRALARVDGNITENMSLHNMIGKGVLVITIAPKEGERYQGVISLDKPTITECLEDYFVRSEQLQTQLIIRTGEYEGKPVAAGMLLQIMPDGSGTPEDFEHLTTLAATVKDEELFGLPAEELLYRLYHEETVNLYPAQDVQFFCGCSAERSSSALLLISDEEIDEILAEHKGRIDMQCECCGTHYFFNKEAIEKLKSTRV”, the “soluble on expression in E. coli” value is reported as “not soluble”. For “MTNVLILGAAGQIARLAEQQFLANTTDNLTLYLRNSSRVADQQSDRVTIIDGDTTDEAKLTQAMTGQDVVYANLAGQNIKQQAETVLKAMHTSGLKRLIWISTLGIYDEVPGKFGQWNNATLGSYLTRYYAAAEVLENSDLDYTIIRPAWLTNKDEIDYEITQRHDPFKGTEVSRKSIAALVVKLTQDPTSNIRTSLGVNKPNTDGDKPAWY”, the “soluble on expression in E. coli” value was “not soluble”. In the case of “MTPFMTEDFLLDTEFARRLYHDYAKDQPIFDYHCHLPPQQIAEDYRFKNLYDIWLKGDHYKWRAMRTNGVAERLCTGDASDREKFDAWAATVPHTIGNPLYHWTHLELRRPFGITGKLLSPSTADEIWNECNELLAQDNFSARGIMQQMNVKMVGTTDDPIDSLEHHAEIAKDGSFTIKVLPSWRPDKAFNIEQATFNDYMAKLGEVSDTDIRRFADLQTALTKRLDHFAAHGCKVSDHALDVVMFAEANEAELDSILARRLAGETLSEHEVAQFKTAVLVFLGAEYARRGWVQQYHIGALRNNNLRQFKLLGPDVGFDSINDRPMAEELSKLLSKQNEENLLPKTILYCLNPRDNEVLGTMIGNFQGEGMPGKMQFGSGWWFNDQKDGMERQMTQLAQLGLLSRFVGMLTDSRSFLSYTRHEYFRRILCQMIGRWVEAGEAPADINLLGEMVKNICFNNARDYFAIELN”, the “soluble on expression in E. coli” value is reported as “soluble”. For “MTPHPRLSIGLPVYNGEEYLAESLDALLGQTYENFELVISDNASTDGTRDICRRYAAQDSRIRYIRLPRNIGAAPNHNYVFTECRGELFKWASHDDLYARDLLRSCVAALDERPEVVLAHAGQAVIDGDGKVKVPYEYGLATDSPRAPERFRSLLFEPGGDDFYGVMRSAMLRRVKPHDSYHHADRTFVAEITLHGPFHQVPELLYFRRDHPTRAERANPSKRSRCVNLDPRRAGPLHPTPRLLAEYVWGFASAIGRAPLSSADRRACHRHLAAWLTSRVRPGVGERVEDRAPVDPDRLTVSVDDLVAGREGRQALEHHHHHH”, the “soluble on expression in E. coli” value was “not soluble”.
